The test system of this assay is target antigen-expressing cell line. The assay can be described thus: Jurkat NFAT-GFP assay, coculture with target cell lines expressing the respective target antigen (summary Table 10A). It is filed as cell-based, human. Further details: key: The signs +/−, +, 2+ etc. after the name of the cell lines indicate the relative degree of positivity on the Jurkat-NFAT-GFP assay as measured by the % GFP positive cells; +: relative degree of positivity on the Jurkat-NFAT-GFP assay as measured by the % GFP positive cells; 2+: relative degree of positivity on the Jurkat-NFAT-GFP assay as measured by the % GFP positive cells. The following applies: relative % GFP positive cells; for NFAT-GFP ASSAY Positive Cell lines: RAJI: SIR-expressing Jurkat-NFAT-GFP cells cocultured with RAJI; for NFAT-GFP ASSAY Positive Cell lines: THP1: SIR-expressing Jurkat-NFAT-GFP cells cocultured with THP1; for NFAT-GFP ASSAY Positive Cell lines: Bv173: SIR-expressing Jurkat-NFAT-GFP cells cocultured with Bv173. In a few lines: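 Coculture of SIR-bearing Jurkat NFAT-GFP reporters with target cells, ~1:2 E:T, ~4–18 h. FACS quantified % GFP+ cells, ranked semi-quantitatively against parental Jurkat-NFAT-GFP.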

B1: 110116-G04 (protein)
chain: MALPVTALLLPLALLLHAARPLEQKLISEEDLGSGDRPDPAVYQLRDSKSSDKSVCLFTDFDSQTNVSQSKDSDVYITDKCVLDMRSMDFKSNSAVAWSNKSDFACANAFNNSIIPEDTFFPSPESSCDVKLVEKSFETDTNLNFQNLSVIGFRILLLKVAGFNLLMTLRLWSSSSRAKRSGSGVKQTLNFDLLKLAGDVESNPGPTSTMALPVTALLLPLALLLHAARPDIVMTQTPLTLSVTIGQPASISCKSSQSLLDSDGKTYLNWLLQRPGQSPERLIYLVSKLDSGVPDRFTGSGSGTDFTLKISRVEAEDLGVYCCWQGTHFPYTFGGGTKVEIKGGGGGSGGGGSGGGGSQVQLQQPGAELVRPGASVKLSCKASGYTFTSYWMNWVKQRPGQGLEWIGMIDPSDSETHYNHIFKDKATLTVDKSSSTAYLQLSSLTSEDSAVYYCARNLYLWGQGTSVTVSSTRGKPIPNPLLGLDSTGSGEDLKNVFPPEVAVFEPSEAEISHTQKATLVCLATGFYPDHVELSWWVNGKEVHSGVCTDPQPLKEQPALNDSRYCLSSRLRVSATFWQNPRNHFRCQVQFYGLSENDEWTQDRAKPVTQIVSAEAWGRADCGFTSESYQQGVLSATILYEILLGKATLYAVLVSALVLMAMVKRKDSRGRAKRSGSGATNFSLLKQAGDVEENPGPSRGHMTEYKPTVRLATRDDVPRAVRTLAAAFADYPATRHTVDPDRHIERVTELQELFLTRVGLDIGKVWVADDGAAVAVWTTPESVEAGAVFAEIGPRMAELSGSRLAAQQQMEGLLAPHRPKEPAWFLATVGVSPDHQGKGLGSAVVLPGVEAAERAGVPAFLETSAPRNLPFYERLGFTVTADVEVPEGPRTWCMTRKPGA
modifications: Synthetic Immune Receptor (SIR)
Take B1: the “NFAT-GFP ASSAY Positive Cell lines: RAJI” value is on record as “RAJI (+/−)”.

B2: 031517-S02 (protein)
chain: MALPVTALLLPLALLLHAARPLEGKPIPNPLLGLDSTGSGEDLKNVFPPEVAVFEPSKAEIAHTQKATLVCLATGFYPDHVELSWWVNGKEVHSGVCTDPQPLKEQPALNDSRYCLSSRLRVSATFWQNPRNHFRCQVQFYGLSENDEWTQDRAKPVTQIVSAEAWGRADCGITSASYHQGVLSATILYEILLGKATLYAVLVSALVLMAMVKRKDSRGRAKRSGSGATNFSLLKQAGDVEENPGPTSMALPVTALLLPLALLLHAARPDIVLTQSPASLAVSLGERATINCRASESVSVIGAHLIHWYQQKPGQPPKLLIYLASNLETGVPARFSGSGSGTDFTLTISSLQAEDAAIYYCLQSRIFPRTFGQGTKLEIKGGGGSGGGGSGGGGSQVQLVQSGSELKKPGESVKISCKASGYTFTDYSINWVKQAPGQGLKWMGWINTETREPAYAYDFRGRFVFSLDTSASTAYLQISSLKAEDTAVYFCALDYSYAMDYWGQGTLVTVSSTREQKLISEEDGSGIQNPDPAVYQLRDSKSSDKSVCLFTDFDSQTNVSQSKDSDVYITDKCVLDMRSMDFKSNSAVAWSNKSDFACANAFNNSIIPEDTFFPSSDVPCDVKLVEKSFETDTNLNFQNLSVIGFRILLLKVAGFNLLMTLRLWSSRAKRSGSGVKQTLNFDLLKLAGDVESNPGPSRGHMTEYKPTVRLATRDDVPRAVRTLAAAFADYPATRHTVDPDRHIERVTELQELFLTRVGLDIGKVWVADDGAAVAVWTTPESVEAGAVFAEIGPRMAELSGSRLAAQQQMEGLLAPHRPKEPAWFLATVGVSPDHQGKGLGSAVVLPGVEAAERAGVPAFLETSAPRNLPFYERLGFTVTADVEVPEGPRTWCMTRKPGA
Take B2: the “NFAT-GFP ASSAY Positive Cell lines: L363” value (SIR-expressing Jurkat-NFAT-GFP cells cocultured with L363) is “L363 (+/−), U266”. The “NFAT-GFP ASSAY Positive Cell lines: U266” value (SIR-expressing Jurkat-NFAT-GFP cells cocultured with U266) is recorded as “(+/−)”.

B3: 051116-C05 (protein)
chain: MALPVTALLLPLALLLHAARPDIVMTQSPDSLAVSLGERATINCRASKSVSTSGYSFMHWYQQKPGQPPKLLIYLASNLESGVPDRFSGSGSGTDFTLTISSLQAEDVAVYYCQHSREVPWTFGQGTKVEIKRLEDLKNVFPPEVAVFEPSEAEISHTQKATLVCLATGFYPDHVELSWWVNGKEVHSGVSTDPQPLKEQPALNDSRYCLSSRLRVSATFWQNPRNHFRCQVQFYGLSENDEWTQDRAKPVTQIVSAEAWGRADCGFTSESYQQGVLSATILYEILLGKATLYAVLVSALVLMAMVKRKDSRGRAKRSGSGATNFSLLKQAGDVEENPGPTSMDWIWRILFLVGAATGAHSFEQVQLVQSGAEVKKPGASVKVSCKASGYTFTNYGMNWVRQAPGQGLEWMGWINTYTGEPTYADAFKGRFAFSLDTSTSTAYLQINSLRSDDTAVYYCARDYGDYGMDYWGQGTTVTVSSTRIQNPDPAVYQLRDSKSSDKSVCLFTDFDSQTNVSQSKDSDVYITDKTVLDMRSMDFKSNSAVAWSNKSDFACANAFNNSIIPEDTFFPSPESSCDVKLVEKSFETDTNLNFQNLSVIGFRILLLKVAGFNLLMTLRLWSSRAKRSGSGVKQTLNFDLLKLAGDVESNPGPSRGHMTEYKPTVRLATRDDVPRAVRTLAAAFADYPATRHTVDPDRHIERVTELQELFLTRVGLDIGKVWVADDGAAVAVWTTPESVEAGAVFAEIGPRMAELSGSRLAAQQQMEGLLAPHRPKEPAWFLATVGVSPDHQGKGLGSAVVLPGVEAAERAGVPAFLETSAPRNLPFYERLGFTVTADVEVPEGPRTWCMTRKPGA
modifications: Synthetic Immune Receptor (SIR)
Take B3: the “NFAT-GFP ASSAY Positive Cell lines: THP1” value is on record as “THP1 (+/−)”.

B4: 090116-G02 (protein)
chain: MALPVTALLLPLALLLHAARPLEGKPIPNPLLGLDSTGSGEDLKNVFPPEVAVFEPSKAEIAHTQKATLVCLATGFYPDHVELSWWVNGKEVHSGVCTDPQPLKEQPALNDSRYCLSSRLRVSATFWQNPRNHFRCQVQFYGLSENDEWTQDRAKPVTQIVSAEAWGRADCGITSASYHQGVLSATILYEILLGKATLYAVLVSALVLMAMVKRKDSRGRAKRSGSGATNFSLLKQAGDVEENPGPTSTMALPVTALLLPLALLLHAARPDIVMTQTPLTLSVTIGQPASISCKSSQSLLDSDGKTYLNWLLQRPGQSPERLIYLVSKLDSGVPDRFTGSGSGTDFTLKISRVEAEDLGVYCCWQGTHFPYTFGGGTKVEIKGGGGGSGGGGSGGGGSQVQLQQPGAELVRPGASVKLSCKASGYTFTSYWMNWVKQRPGQGLEWIGMIDPSDSETHYNHIFKDKATLTVDKSSSTAYLQLSSLTSEDSAVYYCARNLYLWGQGTSVTVSSTREQKLISEEDGSGIQNPDPAVYQLRDSKSSDKSVCLFTDFDSQTNVSQSKDSDVYITDKCVLDMRSMDFKSNSAVAWSNKSDFACANAFNNSIIPEDTFFPSSDVPCDVKLVEKSFETDTNLNFQNLSVIGFRILLLKVAGFNLLMTLRLWSSRAKRSGSGVKQTLNFDLLKLAGDVESNPGPSRGHMTEYKPTVRLATRDDVPRAVRTLAAAFADYPATRHTVDPDRHIERVTELQELFLTRVGLDIGKVWVADDGAAVAVWTTPESVEAGAVFAEIGPRMAELSGSRLAAQQQMEGLLAPHRPKEPAWFLATVGVSPDHQGKGLGSAVVLPGVEAAERAGVPAFLETSAPRNLPFYERLGFTVTADVEVPEGPRTWCMTRKPGA
modifications: Synthetic Immune Receptor (SIR)
Regarding B4, the “NFAT-GFP ASSAY Positive Cell lines: RAJI” value is on record as “RAJI (+)”.

B5: 111215-J02 (protein)
chain: MDWIWRILFLVGAATGAHSFEVQLVESGGGSVQAGGSLRLSCTTSGRALNMYVMGWFRQAPGNEREFVAATSSSGGSTSYPDSVKGRFTISRDNAKNTVYLQMNSLKPEDTAAYRCAASPYVSTPTMNILEEYRYWGLGTQVTVSSLEGKPIPNPLLGLDSTGSGEDLKNVFPPEVAVFEPSEAEISHTQKATLVCLATGFYPDHVELSWWVNGKEVHSGVCTDPQPLKEQPALNDSRYCLSSRLRVSATFWQNPRNHFRCQVQFYGLSENDEWTQDRAKPVTQIVSAEAWGRADCGFTSESYQQGVLSATILYEILLGKATLYAVLVSALVLMAMVKRKDSRGRAKRSGSGATNFSLLKQAGDVEENPGPTSMDWIWRILFLVGAATGAHSFEVQLVESGGGLVQAGGSLRLSCAASGSIFSGNVMGWYRRQAPGKEREWVAAIASGGSIYYRDSVKGRFTISRDNAKNTVYLQMNSLKPEDTAVYYCNSHPPTLPYWGLGTQVTVSSTREQKLISEEDGSGIQNPDPAVYQLRDSKSSDKSVCLFTDFDSQTNVSQSKDSDVYITDKCVLDMRSMDFKSNSAVAWSNKSDFACANAFNNSIIPEDTFFPSPESSCDVKLVEKSFETDTNLNFQNLSVIGFRILLLKVAGFNLLMTLRLWSSRAKRSGSGVKQTLNFDLLKLAGDVESNPGPSRGHMTEYKPTVRLATRDDVPRAVRTLAAAFADYPATRHTVDPDRHIERVTELQELFLTRVGLDIGKVWVADDGAAVAVWTTPESVEAGAVFAEIGPRMAELSGSRLAAQQQMEGLLAPHRPKEPAWFLATVGVSPDHQGKGLGSAVVLPGVEAAERAGVPAFLETSAPRNLPFYERLGFTVTADVEVPEGPRTWCMTRKPGA
modifications: Synthetic Immune Receptor (SIR)
Take B5: the “NFAT-GFP ASSAY Positive Cell lines: Bv173” value is listed as “(+)”. Also, the “NFAT-GFP ASSAY Positive Cell lines: MOLM13” value (SIR-expressing Jurkat-NFAT-GFP cells cocultured with MOLM13) is “MOLM13 (+), Bv173”.

B6: 111215-K06 (protein)
chain: MDWIWRILFLVGAATGAHSFEVQLVESGGGSVQAGGSLRLSCTTSGRALNMYVMGWFRQAPGNEREFVAATSSSGGSTSYPDSVKGRFTISRDNAKNTVYLQMNSLKPEDTAAYRCAASPYVSTPTMNILEEYRYWGLGTQVTVSSLEGKPIPNPLLGLDSTGSGEDLKNVFPPEVAVFEPSKAEIAHTQKATLVCLATGFYPDHVELSWWVNGKEVHSGVCTDPQPLKEQPALNDSRYCLSSRLRVSATFWQNPRNHFRCQVQFYGLSENDEWTQDRAKPVTQIVSAEAWGRADCGITSASYHQGVLSATILYEILLGKATLYAVLVSALVLMAMVKRKDSRGRAKRSGSGATNFSLLKQAGDVEENPGPTSMDWIWRILFLVGAATGAHSFEVQLVESGGGLVQAGGSLRLSCAASGSIFSGNVMGWYRRQAPGKEREWVAAIASGGSIYYRDSVKGRFTISRDNAKNTVYLQMNSLKPEDTAVYYCNSHPPTLPYWGLGTQVTVSSTREQKLISEEDGSGIQNPDPAVYQLRDSKSSDKSVCLFTDFDSQTNVSQSKDSDVYITDKCVLDMRSMDFKSNSAVAWSNKSDFACANAFNNSIIPEDTFFPSSDVPCDVKLVEKSFETDTNLNFQNLSVIGFRILLLKVAGFNLLMTLRLWSSRAKRSGSGVKQTLNFDLLKLAGDVESNPGPSRGHMTEYKPTVRLATRDDVPRAVRTLAAAFADYPATRHTVDPDRHIERVTELQELFLTRVGLDIGKVWVADDGAAVAVWTTPESVEAGAVFAEIGPRMAELSGSRLAAQQQMEGLLAPHRPKEPAWFLATVGVSPDHQGKGLGSAVVLPGVEAAERAGVPAFLETSAPRNLPFYERLGFTVTADVEVPEGPRTWCMTRKPGA
modifications: Synthetic Immune Receptor (SIR)
Take B6: the “NFAT-GFP ASSAY Positive Cell lines: Bv173” value is “Bv173 (+), THP1” and the “NFAT-GFP ASSAY Positive Cell lines: THP1” value is recorded as “(+),”.

Values taken from US12269859B2, “Synthetic immune receptors and methods of use thereof” (Angeles Therapeutics, Inc., priority 2016, dated 2025).
